First the molecules themselves.
T1: Ser-hPRLR(1-210) (human, UniProt P16471 25-234)
T1 construct: range 1-210; Amine-coupled to a CM5 chip in the SPR assay; also called soluble form of the receptor; PRL receptor
T1 sequence: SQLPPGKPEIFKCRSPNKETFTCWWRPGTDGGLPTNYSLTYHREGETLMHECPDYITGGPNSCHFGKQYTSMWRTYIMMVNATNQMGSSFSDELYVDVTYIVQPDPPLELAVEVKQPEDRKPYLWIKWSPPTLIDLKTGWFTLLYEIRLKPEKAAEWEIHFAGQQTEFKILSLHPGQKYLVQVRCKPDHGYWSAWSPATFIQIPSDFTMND

B1: Disulfide bridged PRL 12-199 Q12S E128C dimer (ligand)
chain: SVTLRDLFDRAVVLSHYIHNLSSEMFSEFDKRYTHGRGFITKAINSCHTSSLATPEDKEQAQQMNQKDFLSLIVSILRSWNEPLYHLVTEVRGMQEAPEAILSKAVEIEEQTKRLLCGMELIVSQVHPETKENEIYPVWSGLPSLQMADEESRLSAYYNLLHCLRRDSHKIDNYLKLLKCRIIHNNNC
modifications: intermolecular disulfide bridge between Cys 128 of the two monomers
notes: also called PRL dimer 1; 0033
B2: Disulfide bridged PRL 12-199 Q12S S61A E128C dimer (ligand)
chain: SVTLRDLFDRAVVLSHYIHNLSSEMFSEFDKRYTHGRGFITKAINSCHTASLATPEDKEQAQQMNQKDFLSLIVSILRSWNEPLYHLVTEVRGMQEAPEAILSKAVEIEEQTKRLLCGMELIVSQVHPETKENEIYPVWSGLPSLQMADEESRLSAYYNLLHCLRRDSHKIDNYLKLLKCRIIHNNNC
modifications: intermolecular disulfide bridge between Cys 128 of the two monomers
B3: PRL(12-199) Q12S G129R (ligand)
chain: SVTLRDLFDRAVVLSHYIHNLSSEMFSEFDKRYTHGRGFITKAINSCHTSSLATPEDKEQAQQMNQKDFLSLIVSILRSWNEPLYHLVTEVRGMQEAPEAILSKAVEIEEQTKRLLERMELIVSQVHPETKENEIYPVWSGLPSLQMADEESRLSAYYNLLHCLRRDSHKIDNYLKLLKCRIIHNNNC
notes: Monomeric prolactin receptor antagonist analogue; also called PRL G129R analog
B4: Disulfide bridged PRL 12-199 Q12S R125C dimer (ligand)
chain: SVTLRDLFDRAVVLSHYIHNLSSEMFSEFDKRYTHGRGFITKAINSCHTSSLATPEDKEQAQQMNQKDFLSLIVSILRSWNEPLYHLVTEVRGMQEAPEAILSKAVEIEEQTKCLLEGMELIVSQVHPETKENEIYPVWSGLPSLQMADEESRLSAYYNLLHCLRRDSHKIDNYLKLLKCRIIHNNNC
modifications: intermolecular disulfide bridge between Cys 125 of the two monomers

This passage reports Kd results from US20100022456A1 (Novo Nordisk, published 2010).

The test concerns the target T1, Ser-hPRLR(1-210). Briefly: SPR (Biacore T100), receptor amine-coupled to CM5 chip, ligand injected. The protocol:
The soluble form of the receptor (10 μg/ml in 10 mM sodium acetate, pH 4.0) was injected into a Biacore T100 instrument and coupled to a CM5 sensor chip by amine coupling chemistry. The immobilized level was about 500 RUs of coupled receptor. […] Regeneration was accomplished with 4.5 M MgCl₂ for 90 sec with a flow rate of 30 μl/min between runs.
Background: Surface plasmon resonance follows binding to a sensor surface in real time, without labels.
What is called Kd is the concentration at which binding is half-saturated. Read a high Kd as weaker binding. Molecule B1 registered a dissociation constant (Kd) of 6 nM. This lies in the single-digit nanomolar range.

B2 gave a Kd of 3 nM. As for B3, the Kd is 30 nM. Molecule B4 had a Kd of 20 nM.
